Experimental findings from patent US20230111237A1 (CARLSBERG A S, published 2023) are described below.

Substitutions are numbered along the chain they refer to. Names and notes keep the numbering of the source.

The chains are these.
T1: recombinant wild type Hordeum vulgare limit dextrinase (wt HvLD) (Hordeum vulgare)
T1 chain: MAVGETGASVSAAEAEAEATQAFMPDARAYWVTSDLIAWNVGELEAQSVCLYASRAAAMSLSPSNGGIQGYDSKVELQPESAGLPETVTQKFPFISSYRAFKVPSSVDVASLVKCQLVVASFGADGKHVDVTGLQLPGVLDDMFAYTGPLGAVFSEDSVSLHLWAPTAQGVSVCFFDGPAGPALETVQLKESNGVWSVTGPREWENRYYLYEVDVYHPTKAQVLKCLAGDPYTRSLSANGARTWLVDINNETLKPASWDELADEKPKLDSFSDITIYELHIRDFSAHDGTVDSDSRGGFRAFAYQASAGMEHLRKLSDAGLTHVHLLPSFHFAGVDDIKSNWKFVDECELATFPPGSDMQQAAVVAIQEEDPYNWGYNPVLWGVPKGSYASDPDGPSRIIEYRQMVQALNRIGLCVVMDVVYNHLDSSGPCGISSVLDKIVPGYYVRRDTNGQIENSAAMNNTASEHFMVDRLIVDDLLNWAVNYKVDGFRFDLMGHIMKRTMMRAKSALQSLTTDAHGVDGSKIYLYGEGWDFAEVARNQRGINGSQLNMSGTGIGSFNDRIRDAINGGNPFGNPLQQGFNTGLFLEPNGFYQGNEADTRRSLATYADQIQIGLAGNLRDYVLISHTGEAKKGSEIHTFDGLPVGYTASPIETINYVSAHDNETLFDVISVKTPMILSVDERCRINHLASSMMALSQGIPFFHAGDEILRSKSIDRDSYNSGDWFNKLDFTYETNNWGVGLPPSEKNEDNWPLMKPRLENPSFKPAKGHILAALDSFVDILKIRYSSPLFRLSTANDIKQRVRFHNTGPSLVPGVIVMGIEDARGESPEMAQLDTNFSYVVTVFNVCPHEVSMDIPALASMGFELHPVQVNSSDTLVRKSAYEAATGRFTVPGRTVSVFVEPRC

B1: wild type Hordeum vulgare limit dextrinase inhibitor (wt HvLDI), recombinant (other)
chain: TLESVKDECQPGVDFPHNPLATCHTYVIKRVCGRGPSRPMLVKERCCRELAAVPDHCRCEALRILMDGVRTPEGRVVEGRLGDRRDCPREEQRAFAATLVTAAECNLSSVQEPGVRLVLLADG
B2: HvLDI mutant E68K, recombinant (other)
chain: B1 chain with E44K
B3: HvLDI mutant V66M, recombinant (other)
chain: B1 chain with V42M
B4: HvLDI mutant P60L, recombinant (other)
chain: B1 chain with P36L
B5: HvLDI mutant P60S, recombinant (other)
chain: B1 chain with P36S

The target in the assay is T1, recombinant wild type Hordeum vulgare …. As to the kind of experiment: cell-based or functional assay.
In the case of B1, the “IC50 (µM) of inhibition of HvLD activity (PullG6 assay, 1.5 µM HvLD)” value (shortened to “IC50 (µM) of inhibition of HvLD activity”) turned out to be 1.56 µM. In the case of B2, the “IC50 (µM) of inhibition of HvLD activity” value stood at 7.1 µM.

Turning to B3, the “IC50 (µM) of inhibition of HvLD activity” value is 15.3 µM. B4: the “IC50 (µM) of inhibition of HvLD activity” value stood at 13.2 µM. Consider B5, for which the “IC50 (µM) of inhibition of HvLD activity” value came out at 10.1 µM.
